Reference: PMC11617674 (2024)

Molecular target: T1, GlnK (Escherichia coli (strain …, UniProt P0AC55,P0AC55,P0AC55))
T1 chain 1: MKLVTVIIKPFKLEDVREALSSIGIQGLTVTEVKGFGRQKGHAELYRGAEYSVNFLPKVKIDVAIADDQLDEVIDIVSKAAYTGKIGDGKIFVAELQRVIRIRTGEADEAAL
T1 chain 2: T1 chain 1
T1 chain 3: T1 chain 1
Experiment: BLI (His-PII trimer on sensor), ADP

B1: UmpH (protein)
chain: MTIKNVICDIDGVLMHDNVAVPGAAEFLHGIMDKGLPLVLLTNYPSQTGQDLANRFATAGVDVPDSVFYTSAMATADFLRRQEGKKAYVVGEGALIHELYKAGFTITDVNPDFVIVGETRSYNWDMMHKAAYFVANGARFIATNPDTHGRGFYPACGALCAGIEKISGRKPFYVGKPSPWIIRAALNKMQAHSEETVIVGDNLRTDILAGFQAGLETILVLSGVSSLDDIDSMPFRPSWIYPSVAEIDVI
Kd: 7.8 nM
